Test results published in patent US20250152743A1, “SYNPOPTOSIS CIRCUITS FOR PROGRAMMABLE CELL DEATH CONTROL” (California Institute of Technology, priority 2023, published 2025).

Experiments:
[1] = test system: co-culture of engineered HEK cells that stably express Input 1, Input 2, or both, and wildtype cells; assay: Synpoptosis gates in co-culture of four input-state cell lines, Annexin flow cytometry; type: cell-based, human; details: Input 1 TEVP (Cherry), Input 2 TVMVP (Citrine)
Experimental: As a proof of concept for combinatorial targeting, the synpoptosis gates were tested in a co-culture of engineered HEK cells that stably express Input 1, Input 2, or both, and wildtype cells that express neither. Input 1 with Cherry and Input 2 with Citrine were co-expressed, such that the two fluorescent protein profiles represented input patterns (FIG. 4C, Quadrant layout). The co-culture of the four cell lines were then transfected with the synthetic apoptosis gates to analyze their killing specificity. Transfections of no caspase-3 (FIG. 4C, Mock) and active caspase-3 (FIG. 4C, Indiscriminate) were used to establish background and ceiling apoptosis levels, respectively. […] Similar killing specificities were observed when the synthetic pyroptosis gates were transfected into the co-culture (FIG. 4D).
For experiments that required stable transgene expression, stable cell lines were engineered using lentiviruses followed by antibiotic selection, or using the PiggyBac transposase system. […] The next day, the cells were co-transfected using Lipofectamine 2000 with three plasmids, pLVX-M-PURO (Addgene plasmid #125839) containing the gene of interest, the TEVP-activatable Citrine reporter for instance, psPAX2 (Addgene plasmid #12260), and pCMV-VSV-G (Addgene plasmid #8454). We kept the mass ratio of the three plasmids at 9:9:2 (450 ng:450 ng:100 ng). In some experiments involving cells stably expressing two or more transgenes, the lentiviruses were generated using multiple pLVX-M-PURO plasmids carrying different genes of interest. An alternative ratio of pLVX-M-PURO:psPAX2:pCMV-VSV-G was 2:2:1 (2.4 μg:2.4 μg:1.2 μg), which was used to generate lentiviruses for stable integration of IL-1β and IL-18 genes. […] The RasGC line, or HEK293 cells stably expressing human H-Ras G12V mutant along with a Cerulean fluorescence marker, was generated using the PiggyBac method. […] One week later, the cells were sorted based on Cerulean fluorescence to obtain the final RasGC line. […]

HEK cells = assay: Transient DNA transfection of HEK cells, Annexin/Sytox staining, flow cytometry; type: cell-based, human
Experimental: HEK cells were transiently co-transfected with DNA encoding the circuits, often along with Cherry, a fluorescent protein marker, and cells were analyzed by flow cytometry 16 to 24 hours later. To quantify cell death, the cells were strained with Annexin, Sytox, or both. Annexin stains apoptotic cells by binding to phosphatidylserine exposed on the outer leaflet, and pyroptotic cells by binding to phosphatidylserine in the inner leaflet after membrane permeabilization. In contrast, Sytox, a membrane-impermeable dye, primarily stains pyroptotic cells. Therefore, apoptotic cells are typically Annexin-high and Sytox-low, while pyroptotic cells are Annexin-high and Sytox-high (FIG. 7B). For simplicity, in experiments involving only a single death mode, a single relevant dye was often used. To focus on cells influenced by the circuits, the fraction of Annexin- or Sytox-positive cells was calculated after gating on the fluorescent co-transfection marker (FIG. 7C).
On the day before transfection, HEK cells were seeded at a density of 0.3-0.6 million cells per well on a 12-well plate, 0.1-0.3 million cells per well on a 24-well plate, or 15,000-50,000 cells per well on a 96-well plate. The cells were allowed to attach to the plate overnight, for at least 8 hours. On the day of transfection, we treated the cells with purified DNA plasmids encoding circuit components. In addition to plasmids encoding circuit components, we often included a plasmid encoding a fluorescent co-transfection marker, at roughly 50 ng DNA per well on a 24-well plate. Given the different number of molecular components in each synthetic circuit and their various relative ratios, the total amount of DNA ranged from 50 to 1 μg per well on a 24-well plate, and was scaled by […] when other 12-well or 96-well plates were used, respectively. On the same plate, we often equalized the total amount of DNA across all transfected wells, using a filler plasmid encoding the neomycin resistance gene. To transfect cells with plasmid DNA, we used three types of transfection reagents—Lipofectamine 2000 (Thermo Fisher), Lipofectamine 3000 (Thermo Fisher), and FuGENE HD (Promega), according to manufacturers' instructions. Briefly, for a typical transfection experiment on a 24-well plate, we mixed plasmids and the transfection reagent, around 200 ng of DNA per 1 μl of Lipofectamine 2000, in 25 μl of Opti-MEM reduced serum medium (Thermo Fisher), incubated the mixture for 5-10 min at room temperature, and then added another 25 μl of Opti-MEM before transferring the mixture dropwise to culture wells. We also performed some transfection experiments using the Lipofectamine 3000 kit (Thermo Fisher), at a ratio of 2,000 ng of DNA, 2 ul of 4 ul of P3000, and 3 μl of Lipofectamine 3000. We similarly diluted the mixture in Opti-MEM before adding it to cells. For transfection with FuGENE, we used a ratio of 4 μl FuGENE:1 μg of DNA, and incubated the DNA-FuGENE mixture at room temperature for 5 min before transfection. To enable protein expression from plasmids with a doxycycline-inducible promoter, doxycycline was added to the cell culture at a final concentration of 100 ng/mL. In experiments involving Q-VD-OPh, the compound was added to the cell culture at a final concentration of 30 μM, immediately after the cells received the transfection mixture. To transfect cells with in vitro transcribed mRNA, Lipofectamine MessengerMax (Thermo Fisher) was used. Briefly, for transfection of one well in a 96-well plate, 0.1 μL of Lipofectamine MessengerMAX was diluted in 1.25 μL Opti-MEM and incubated for 10 minutes at room temperature. mRNA was then added to Opti-MEM to the appropriate conditions at the following amounts: 12.5 ng of fluorescent co-transfection marker, 56.25 ng of protease, and 56.25 ng of engineered executioner. Diluted mRNA was then added to diluted MessengerMAX reagent and incubated for 5 minutes at room temperature before addition to Jurkat or THP-1 cells in RPMI media. […]

[2] = test system: sender and receiver HEK cells
Experimental: For experiments that involved circuit senders and receivers, sender HEK cells were seeded on a 12-well plate at a density of 0.6 million cells per well (day 1). On the following day (day 2), using Lipofectamine 3000 (Thermo Fisher), we transfected the sender cells with 450 ng of pLVX-M-PURO plasmid containing the cargo, 450 ng of M-psPAX2, and 100 ng of pCMV-VSV-G. To generate VLPs encoding two cargoes, we performed similar transfections using two cargo-containing plasmids, each at 225 ng. At 8 hours post transfection, we removed the media containing residual Lipofectamine particles, washed the cells gently with fresh media, and replaced the media. One day after transfection of sender cells (day 3), we typically seeded receiver HEK cells on a 24-well plate at a density of around 0.3 million cells per well or on a 96-well plate at around 75,000 cells per well. We also tried other receiver densities, in which case we needed to dilute the cells if they approached confluency during the course of the experiment. Two days after transfection of sender cells (day 4), we collected the sender supernatant, centrifuged it at 3,000 g for 5 min to remove cell debris, and passed it through a cellulose acetate filter with 0.45 μm pore size (VWR). […] After about 40 hours, we collected the co-cultured cells, stained them with Sytox, and analyzed cell death by flow cytometry. […]

Molecule | killing specificity, Annexin staining [1] | sender cell death [2] | also measured
AND-gated caspase-3: TEVP-activatable caspase-3 fused to a TVMVP-removable degron; SEQ ID NO: 23 (protein) MGSENTENSVDSKSIKNLEPKIIHGSESMDSGISLDNSYKMDYPEMGLCIIINNKNFHKSTGMTSRSGTDVDAANLRETFRNLKYEVRNKNDLTREEIVELMRDVSKEDHSKRSSFVCVLLSHGEEGIIFGTNGPVDLKKITNFFRGDRCRSLTGKPKLFIIQACRGTELDCGIETENLYFQSGVDDDMACHKIPVEADFLYAYSTAPGYYSWRNSKDGSWFIQSLCAMLKQYADKLEFMHILTRVNRKVATEFESFSFDATFHAKKQIPCIVSMLTKELYFYHGGSGLETVRFQSGSGSISLIAALAVDYVIGMENAMPWNLPADLAWFKRNTLNKPVIMGRHTWESIGRPLPGRKNIILSSQPSTDDRVTWVKSVDEAIAACGDVPEIMVIGGGRVIEQFLPKAQKLYLTHIDAEVEGDTHFPDYEPDDWESVFSEFHDADAQNSHSYCFEILERR | triggered apoptosis predominantly in double-positive cells |  | 
OR-gated caspase-3: tandem TEVP and TVMVP cleavage sites at the inter-subunit linker of caspase-3; SEQ ID NO: 24 (protein) MGSENTENSVDSKSIKNLEPKIIHGSESMDSGISLDNSYKMDYPEMGLCIIINNKNFHKSTGMTSRSGTDVDAANLRETFRNLKYEVRNKNDLTREEIVELMRDVSKEDHSKRSSFVCVLLSHGEEGIIFGTNGPVDLKKITNFFRGDRCRSLTGKPKLFIIQACRGTELDCGIETENLYFQSETVRFQSGVDDDMACHKIPVEADFLYAYSTAPGYYSWRNSKDGSWFIQSLCAMLKQYADKLEFMHILTRVNRKVATEFESFSFDATFHAKKQIPCIVSMLTKELYFYH | caused apoptosis in single-positive and double-positive cells, sparing only double-negative cells |  | 
tobacco etch virus protease (protein, viral input protease) MGSGESLFKGPRDYNPISSTICHLTNESDGHTTSLYGIGFGPFIITNKHLFRRNNGTLLVQSLHGVFKVKNTTTLQQHLIDGRDMIIIRMPKDFPPFPQKLKFREPQREERICLVTTNFQTKSMSSMVSDTSCTFPSSDGIFWKHWIQTKDGQCGSPLVSTRDGFIVGIHSASNFTNTNNYFTSVPKNFMELLTNQEAQQWVSGWRLNADSVLWGGHKVFMVKPEEPFQPVKEATQLMNS |  | neither circuit component alone triggered substantial sender cell death | activation of cognate engineered GSDMs containing the cleavage sites (HEK cells; tev, tvmv and hcv sites): orthogonally activated their cognate engineered GSDMs
caspase-3 variant designed to activate in the presence of Input 1 and the absence of Input 2: TEVP-removable degron on small subunit, TVMVP-activatable N-degron on large subunit (SEQ ID NOs: 25, 26) (protein) chain 1: MGSETVRFQYHKSGAWKLPVSLVKEQLEKKLQALEKKLAQLEWKNQALEKKLAQENTENSVDSKSIKNLEPKIIHGSESMDSGISLDNSYKMDYPEMGLCIIINNKNFHKSTGMTSRSGTDVDAANLRETFRNLKYEVRNKNDLTREEIVELMRDVSKEDHSKRSSFVCVLLSHGEEGIIFGTNGPVDLKKITNFFRGDRCRSLTGKPKLFIIQACRGTELDCGIETD chain 2: MGSSGVDDDMACHKIPVEADFLYAYSTAPGYYSWRNSKDGSWFIQSLCAMLKQYADKLEFMHILTRVNRKVATEFESFSFDATFHAKKQIPCIVSMLTKELYFYHGGSGALKKELQANKKELAQLKWELQALKKELAQGGSGLENLYFQSGSGSISLIAALAVDYVIGMENAMPWNLPADLAWFKRNTLNKPVIMGRHTWESIGRPLPGRKNIILSSQPSTDDRVTWVKSVDEAIAACGDVPEIMVIGGGRVIEQFLPKAQKLYLTHIDAEVEGDTHFPDYEPDDWESVFSEFHDADAQNSHSYCFEILERR | restricted apoptosis to the corresponding cells |  | 
TEVP-activatable GSDMA: GSDMA with TEVP cleavage site between N-terminal and C-terminal domains; SEQ ID NO: 16 (protein) MGSPVFEDVTRALVRELNPRGDLTPLDSLIDFKHFRPFCLVLRKRKSTLFWGARYVRTDYTLLDLLEPGSSPSDLTDSGNFSFKNMLDVQVQGLVEVPKTVKVKGTAGLSQSSTLEVQTLSVAPSALENLKKERKLSADHSFLNEMRYHEKNLYVVMEAVEAKQEVTVEQTGNANAIFSLPSLALLGLQGSLNNNKAVTIPKGCVLAYRVRLLRVFLFNLWDIPYICNDSMQTFPKIRRVPCSAFISPTQMISEEPEEEKLIGEENLYFQSMHEDFKTLKEEVQRETQEVEKLSPVGRSSLLTSLSHLLGKKKELQDLEQKLEGALDKGQKVTLEALPKDVLLSKDAMDAILYFLGALTELTEEQLKILVKSLEKKILPVQLKLVESTLEQNFLQDKEGVFPLQPDLLSSLGEEELTLTEALVGLSGLEVQRSGPQYAWDPDTRHNLCALYAGLSLLHLLSRKSNALTYCALS |  | neither circuit component alone triggered substantial sender cell death | mode of cell death, Sytox and Annexin double staining (HEK cells; background of TEVP activating TEVP-activatable caspase-3): converted apoptosis to pyroptosis; cell death without the activating TEVP (HEK cells; expressed at high levels indicated by co-transfected Cherry): induced noticeable cell death even without the activating TEVP
